Assay results taken from patent EP3459964A1, “GALECTIN-1 BINDING PEPTIDES AND USE THEREOF FOR DIAGNOSTIC AND THERAPEUTIC PURPOSE” (Université de Mons, priority 2017, dated 2019).
Where no end group is shown, it is not given here.

Assays:
[1] = target: T1, Human gal-1 (Homo sapiens, UniProt P09382); test: Gal-1 binding of the isolated phage clones (ELISA), affinity constants against gal-1 or control proteins (HSA, collagen); conditions: phage clone expressing the peptide; for Affinity 2 Ka^Gal-1 / Ka^Coll / Affinity 1 Ka^Gal-1 / Ka^HSA: Ka = 1/K*d; for Affinity 2 Ka^Gal-1 / Ka^Coll: Coll = collagen; for Affinity 1 Ka^Gal-1 / Ka^HSA: one representative clone per sequence; for Affinity 3 Ka^Gal-1/ ((Ka^HSA + Ka^Coll)/2): specific affinity vs mean of control proteins
T1 construct: purchased Peprotech
T1 sequence (P09382 whole entry): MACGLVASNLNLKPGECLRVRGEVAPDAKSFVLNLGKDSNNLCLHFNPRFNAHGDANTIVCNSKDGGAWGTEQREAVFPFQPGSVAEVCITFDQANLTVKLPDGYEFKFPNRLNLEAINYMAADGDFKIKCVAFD
Description: Human gal-1 (Peprotech) and control proteins (HSA and collagen) were immobilized on 96-well ELISA plates at a concentration of 10 µg/mL in NaHCO3 0.1 M, pH 8.6, overnight at 4°C. The wells were then blocked with Protein-Free Blocking Buffer (PFBB, Thermo Fisher Scientific, p/a Perbio Science BVBA, Aalst, Belgium), 1 hour at room temperature. Fifty clones issued from each phage display experiment were first screened at one concentration (5 x 10^11 phages/100 µL for PDE1; 10^11 phages/100 µL for PDE2) prepared in Tris buffered saline (TBS: 50 mM Tris-HCl, 150 mM NaCl, pH 7.5) supplemented with 0.5% Tween-20 (TBST). The clones were incubated for 2 hours at room temperature, under mild agitation. To determine the apparent dissociation constant (K*d) of the selected clones, ten serial dilutions of phages (generally ranging from 5x10^12 to 10^7 phages/100 µL) were incubated with gal-1 or control proteins in the same conditions as for the first clones' screening. The bound phages were detected by an incubation (1 hour, room temperature) with horseradish peroxidase (HRP)-conjugated anti-M13 monoclonal antibody (Amersham Pharmacia Biotech Benelux, Roosendaal, The Netherlands) diluted 1:5000 in TBS supplemented with 0.5% BSA. After each incubation step, the wells were rinsed with an automated microplate washer (Beckman Coulter, Analis, Suarlée, Belgium). Finally, the wells were filled with 200 µL/well of 2,2'-azino-bis(3-ethylbenzothiazoline-6-sulphonic acid (ABTS, 22 mg) diammonium salt (Sigma-Aldrich) solution prepared in 50 mM sodium citrate pH 4.0 completed with 0.05% H2O2. The optical density (OD) was measured (405 nm, differential filter: 630 nm) using a microplate reader (StatFax-2100, Awareness Technology, Fisher Bioblock Scientific, Tournai, Belgium).

[2] = test system: TPC-1 cells; test: Cell adhesion assay: TPC-1 cell adhesion to immobilized gal-1; assay type: cell-based, human; conditions: 500 nM, TPC-1 adhesion to gal-1, non-biotinylated peptides
Description: Gal-1 (Peprotech) was immobilized on 96-well culture plates at 20 µg/mL overnight at 4°C. After blocking with 0.1% BSA prepared in phosphate buffered saline (PBS, per liter: 8 g NaCl, 0.2 g KCl, 2.31 g Na2HPO4 × 12 H2O 0.2 g KH2PO4, pH 7.4), non-biotinylated peptides (P1, P7 or P1Scr) diluted in RPMI 1640 culture medium at 0.5 µM or 50 µM were pre-incubated with gal-1 for 2 hours. In the meanwhile, TPC-1 cells (10^5 cells/well) were pre-incubated with the desired concentration of peptides in RPMI 1640 culture medium for 30 minutes before seeding them into the wells. The cells were then incubated (37 °C, 5% CO2) with gal-1 immobilized on wells for one hour. The negative control cells were incubated with RPMI 1640 culture medium alone. After washing steps and plate centrifugation between them, cells were fixed 15 minutes with buffered 4% formalin (from Sigma-Aldrich) and washed before staining with 1% crystal violet. Wells were rinsed and crystal violet was solubilized with dimethyl sulfoxide (DMSO, Sigma-Aldrich) before measuring absorbance at 570 nm (differential filter at 630 nm) with a microplate reader. The percentage of adherent cells was obtained by calculating the percentage ratio of OD measured for TPC-1 incubated with peptides over the OD of negative control cells.

[3] = Circular dichroism study of secondary structure in distilled water; assay type: physicochemical; conditions: non-biotinylated peptides, 1 mM in distilled water, 20 °C and 37 °C
Description: Non-biotinylated peptides dissolved in distilled water at 1 mM were used for structure analysis. Circular Dichroism (CD) spectra were recorded using a ChirascanTM Plus CD Spectrometer (Applied Photophysics Inc., Leatherhead, United Kingdom). The measurements were carried out using 1 mm quartz Suprasil cells from Hellma Analytics (Müllheim, Germany). The spectra were recorded between 180 and 350 nm, with a bandwidth of 0.5 nm, time per point 2 s and three repetitions, both at 20 °C and 37 °C. The CD RMS (Root Mean Square) noise is around 0.03 mdeg at 180 nm. The aqueous solution reference spectra were used as baselines and were automatically subtracted from the CD spectra of the samples.

[4] = target: T2, gal-1 expressed by human tumor tissues (Homo sapiens, UniProt P09382); test: Binding of biotinylated peptides to human thyroid biopsies (immunohistochemistry, ImageJ semi-quantitative analysis); conditions: for staining produced by peptides in healthy thyroids and thyroid adenomas compared to papillary, follicular and anaplastic thyroid cancer: ImageJ analysis of immunohistochemistry microphotographs; for targeting of the papillary areas: biotinylated peptides 20 µM, human papillary thyroid cancer biopsy sections
T2 construct: from tissue; host or cells: paraffin-embedded human thyroid biopsy sections (healthy, inflammatory, adenoma, papillary, follicular, anaplastic)
T2 sequence (P09382 whole entry): as above
Description: Immunohistochemistry evaluation was performed on 5 µm thick sections mounted on silane-coated glass slides. The paraffin-embedded tissue specimens were deparaffinized and rehydrated. After unmasking the epitopes in citrate buffer pH 6.0, the endogenous peroxidase activity was blocked with 0.7% H2O2. Sections were then blocked with streptavidin - biotin blocking kit (Vector Labconsult) and with 0.5% casein (Sigma-Aldrich).
The binding of biotinylated peptides to tumor biopsies was validated by using a similar protocol. However, no epitope unmasking was performed, while casein blocking was replaced by PFBB. Endogenous peroxidases were blocked with 1% H2O2. The biotinylated peptides (stock prepared in distilled water) were diluted in TBS at a concentration of 20 µM and incubated with tumor biopsies overnight at 4 °C. The bound peptides were then detected with 5 µg/mL of anti-biotin antibody made in goat (Vector Labconsult) and with 1 µg/mL of biotinylated anti-goat IgG made in horse (both from Vector Labconsult) both diluted in TBS completed with 0.5% BSA […]. After incubation with Vectastain ABC kit (Vector Labconsult), the staining with DAB/H2O2 and Hemalun counterstaining were performed as described above.
Gal-1 staining on immunohistochemistry microphotographs (DM2000 Leica microscope equipped with a DFC 425C camera, Leica Microsystems) was semi-quantitatively analyzed by ImageJ software (National Institutes of Health, USA). The expression of gal-1 was compared in 5 cases of healthy thyroid, 2 cases of inflammatory thyroid (patients with goiter), 6 cases of thyroid adenoma, 6 cases of papillary thyroid cancer, 4 cases of follicular variant of papillary thyroid cancer and 6 cases of anaplastic cancer. The binding of peptides 1 and 7 was compared in 5 cases of healthy thyroid, 2 cases of inflammatory thyroid, 6 cases of thyroid adenoma, 3 cases of papillary thyroid cancer, 3 cases of follicular thyroid cancer and 6 cases of anaplastic thyroid cancer. The total area occupied by brown stained pixels was determined after thresholding the background staining on blank histological slices, where the primary antibody was excluded. The total stained area is then automatically generated after pixel segmentation.

Sequence	Affinity 2 Ka^Gal-1 / Ka^Coll [1]	Affinity 1 Ka^Gal-1 / Ka^HSA [1]	Affinity 3 Ka^Gal-1/ ((Ka^HSA + Ka^Coll)/2) [1]	decrease of cell adhesion [2]	conformation in aqueous solution (CD signature) [3]	staining produced by peptides in healthy thyroids and thyroid adenomas compared to papillary, follicular and anaplastic thyroid cancer [4]	targeting of the papillary areas [4]
DWSSWVYRDPQT [Peptide P8]	27.92	1.23	2.36	–	–	–	–
HLWGWLYAPSFQ [Peptide P1, HLWGWLYAPSFQ]	–	–	–	around 25%	random coil state	weaker	efficient targeting of the papillary areas
HYSWSWIAYSPG [Peptide P3]	1.35	0.99	1.14	–	–	–	–
SVYVEISWVRTM [Peptide P6]	1.17	1.17	1.17	–	–	–	–
VHWDFRQWWQPS [Peptide P4]	1.93	1.18	1.47	–	–	–	–
YHHSGPYAGPMW [Peptide P5]	1.58·10^13	1.25	2.50	–	–	–	–
YSWHIDIVAPRN [Peptide P7, YSWHIDIVAPRN]	infinite ratio	infinite ratio	infinite ratio	~30%	random coil state	weaker	efficient targeting of the papillary areas
YTFHFDIFQPHF [Peptide P2]	8.15	121.56	25.66	–	–	–	–
